# Measurements published in US10280205B2, “Method for treating cancer with an activated T lymphocyte that selectively recognizes a cancer cell consisting of specific peptide” (immatics biotechnologies GmbH, priority 2015, dated 2019).
# Target: HLA-A*02:01 (Homo sapiens, UniProt P04439, D140Y/D185E/D98H/E176V/E277Q/G131W/G231S/I119V/I121R/I166T/I218V/L300P/L318F/N151K/N90K/P208A/P217A/Q86G/Q94H/R138H/R169H/T345S)
# Assay: MHC binding assay: UV-ligand exchange with beta2m ELISA (exchange yield)
# Details: binding to HLA-A*02:01, β2m ELISA
# Method in brief: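 Peptide–HLA-A*02:01 complexes formed by UV-induced exchange of a photocleavable ligand for the test peptide. Exchange products diluted 100-fold and captured on streptavidin-coated plates. Stabilized complexes detected with HRP anti-β2m (1 h, 37° C.) and TMB, A450; exchange yield reported.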
row,"Peptide exchange (MHC class I binding score, peptide exchange yield)",Substance
1,“+++” (≥50 = +++),304 (MTLGQIYYL; listed as Homo sapiens) [compound 304]
2,“++++” (≥75% = ++++),289 (VLLEIEDLQV; listed as Homo sapiens) [compound 289]
3,“+++” (≥50 = +++),326 (FLPEALDFV; listed as Homo sapiens) [compound 326]
4,“+++” (≥50 = +++),315 (YLQDVVEQA; listed as Homo sapiens) [compound 315]
5,“++” (≥20% = ++),197 (ALGPEGGRV; listed as Homo sapiens) [compound 197]
6,“+” (≥10% = +),230 (ILVDWLVEV; listed as Homo sapiens) [compound 230]
7,“++” (≥20% = ++),87 (ALPEAPAPLLPHIT; listed as Homo sapiens) [compound 87]
8,“+++” (≥50 = +++),54 (SLLEQGKEPWMV; listed as Homo sapiens) [compound 54]
9,“+++” (≥50 = +++),41 (SLMPHIPGL; listed as Homo sapiens) [compound 41]
10,“+++” (≥50 = +++),612 (YLYNEGLSV; listed as Homo sapiens) [compound 612]
11,“++” (≥20% = ++),93 (LLQAIKLYL; listed as Homo sapiens) [compound 93]
12,“++++” (≥75% = ++++),576 (ILLNNSGQIKL; listed as Homo sapiens) [compound 576]
13,“+++” (≥50 = +++),30 (LILDWVPYI; listed as Homo sapiens) [compound 30]
14,“++” (≥20% = ++),269 (RVLEVGALQAV; listed as Homo sapiens) [compound 269]
15,“+++” (≥50 = +++),129 (GLLDGGVDILL; listed as Homo sapiens) [compound 129]
16,“++” (≥20% = ++),412 (YLDDLNEGVYI; listed as Homo sapiens) [compound 412]
17,“+++” (≥50 = +++),336 (ILLTAIVQV; listed as Homo sapiens) [compound 336]

row,"Peptide exchange (MHC class I binding score, peptide exchange yield)",Substance
1,“+++” (≥50 = +++),599 (YLLNDASLISV; listed as Homo sapiens) [compound 599]
2,“+++” (≥50 = +++),366 (RLLDMGETDLML; listed as Homo sapiens) [compound 366]
3,“++++” (≥75% = ++++),51 (LLPDLEFYV; listed as Homo sapiens) [compound 51]
4,“++++” (≥75% = ++++),178 (ALTEIAFVV; listed as Homo sapiens) [compound 178]
5,“++” (≥20% = ++),277 (LLPPLESLATV; listed as Homo sapiens) [compound 277]
6,“+++” (≥50 = +++),573 (ILVANAIVGV; listed as Homo sapiens) [compound 573]
7,“+++” (≥50 = +++),201 (RLVDYLEGI; listed as Homo sapiens) [compound 201]
8,“+++” (≥50 = +++),236 (GLLEAKVSL; listed as Homo sapiens) [compound 236]
9,“++++” (≥75% = ++++),329 (FLVTLNNVEV; listed as Homo sapiens) [compound 329]
10,“+++” (≥50 = +++),102 (YLFESEGLVL; listed as Homo sapiens) [compound 102]
11,“++” (≥20% = ++),318 (GLINTGVLSV; listed as Homo sapiens) [compound 318]
12,“++” (≥20% = ++),270 (LLLDEEGTFSL; listed as Homo sapiens) [compound 270]
13,“+++” (≥50 = +++),351 (SLIPNLRNV; listed as Homo sapiens) [compound 351]
14,“+++” (≥50 = +++),187 (RQISIRGIVGV; listed as Homo sapiens) [compound 187]
15,“++” (≥20% = ++),258 (ELAERVPAI; listed as Homo sapiens) [compound 258]
16,“+++” (≥50 = +++),383 (ALLELENSVTL; listed as Homo sapiens) [compound 383]
17,“++” (≥20% = ++),115 (AIAGAGILYGV; listed as Homo sapiens) [compound 115]

# Second part, the substance before the results:
row,Substance,"Peptide exchange (MHC class I binding score, peptide exchange yield)"
1,192 (KMLDGASFTL; listed as Homo sapiens) [compound 192],“+++” (≥50 = +++)
2,579 (NLMEMVAQL; listed as Homo sapiens) [compound 579],“++” (≥20% = ++)
3,563 (WLLPYNGVTV; listed as Homo sapiens) [compound 563],“+++” (≥50 = +++)
4,541 (SMLEPVPEL; listed as Homo sapiens) [compound 541],“+++” (≥50 = +++)
5,537 (TLAPGEVLRSV; listed as Homo sapiens) [compound 537],“+++” (≥50 = +++)
6,20 (RMIEYFIDV; listed as Homo sapiens) [compound 20],“+++” (≥50 = +++)
7,114 (SLVGEPILQNV; listed as Homo sapiens) [compound 114],“++” (≥20% = ++)
8,635 (SLDSTLHAV; listed as Homo sapiens) [compound 635],“+++” (≥50 = +++)
9,281 (ILRESTEEL; listed as Homo sapiens) [compound 281],“+++” (≥50 = +++)
10,350 (ALLDVTHSELTV; listed as Homo sapiens) [compound 350],“+++” (≥50 = +++)
11,564 (TVTNAVVTV; listed as Homo sapiens) [compound 564],“+++” (≥50 = +++)
12,64 (YAAPGGLIGV; listed as Homo sapiens) [compound 64],“++” (≥20% = ++)
13,26 (ALLELAEEL; listed as Homo sapiens) [compound 26],“+++” (≥50 = +++)
14,604 (SILDRDDIFV; listed as Homo sapiens) [compound 604],“+++” (≥50 = +++)
15,266 (KITDTLIHL; listed as Homo sapiens) [compound 266],“+++” (≥50 = +++)
16,53 (KMIETDILQKV; listed as Homo sapiens) [compound 53],“++++” (≥75% = ++++)
17,255 (VLASYNLTV; listed as Homo sapiens) [compound 255],“+++” (≥50 = +++)

row,Substance,"Peptide exchange (MHC class I binding score, peptide exchange yield)"
1,218 (SALEELVNV; listed as Homo sapiens) [compound 218],“++” (≥20% = ++)
2,607 (RLYSGISGLEL; listed as Homo sapiens) [compound 607],“+++” (≥50 = +++)
3,16 (VLFQGQASL; listed as Homo sapiens) [compound 16],“+++” (≥50 = +++)
4,527 (FLLEPGNLEV; listed as Homo sapiens) [compound 527],“++++” (≥75% = ++++)
5,14 (AAYGGLNEKSFV; listed as Homo sapiens) [compound 14],“+++” (≥50 = +++)
6,386 (ILFRYPLTI; listed as Homo sapiens) [compound 386],“+++” (≥50 = +++)
7,184 (YLMDINGKMWL; listed as Homo sapiens) [compound 184],“+++” (≥50 = +++)
8,152 (ILFEDIFDV; listed as Homo sapiens) [compound 152],“+++” (≥50 = +++)
9,347 (SLFKHDPAAWEA; listed as Homo sapiens) [compound 347],“++++” (≥75% = ++++)
10,303 (AILPQLFMV; listed as Homo sapiens) [compound 303],“++++” (≥75% = ++++)
11,142 (FLFATPVFI; listed as Homo sapiens) [compound 142],“+++” (≥50 = +++)
12,401 (ILLDDTGLAYI; listed as Homo sapiens) [compound 401],“+++” (≥50 = +++)
13,570 (ALANQIPTV; listed as Homo sapiens) [compound 570],“++” (≥20% = ++)
14,209 (KLIESKHEV; listed as Homo sapiens) [compound 209],“++” (≥20% = ++)
15,313 (VLFDDELLMV; listed as Homo sapiens) [compound 313],“+++” (≥50 = +++)
16,520 (LAVHPSGVAL; listed as Homo sapiens) [compound 520],“+” (≥10% = +)
